Measured values reported in patent publication US12065466B2, “Methods and compositions for protein sequencing” (Quantum-Si Incorporated, priority 2020, dated 2024).

B1: PS614: polypeptide with two copies of the ClpS binder PS372 oriented in tandem (protein)
chain: MAFPARGKTAPKNEVRRQPPYNVILLNDDDHTYRYVIEMLQKIFGFPPEKGFQIAEEVDRTGRVILLTTSKEHAELKQDQVHSYGPDPYLGRPCSGSMTCVIEPAVGSAGSAAGSGEFMAFPARGKTAPKNEVRRQPPYNVILLNDDDHTYRYVIEMLQKIFGFPPEKGFQIAEEVDRTGRVILLTTSKEHAELKQDQVHSYGPDPYLGRPCSGSMTCVIEPAVGGSHHHHHHHHHHGGGSGGGSGGGSGLNDFFEAQKIEWHEGGGSGGGSGGGSGLNDFFEAQKIEWHE
B2: PS696 (protein)
chain: MPTAASATESAIEDTPAPARPEVDGRTKPKRQPRYHVVLWNDDDHTYQYVVVMLQSLFGHPPERGYRLAKEVDTQGRVIVLTTTREHAELKRDQIHAFGYDRLLARSKGSMKASIEAEEGSAGSAAGSGEFMDKDCEMKRTTLDSPLGKLELSGCEQGLHEIKLLGKGTSAADAVEVPAPAAVLGGPEPLMQATAWLNAYFHQPEAIEEFPVPALHHPVFQQESFTRQVLWKLLKVVKFGEVISYQQLAALAGNPAATAAVKTALSGNPVPILIPCHRVVSSSGAVGGYEGGLAVKEWLLAHEGHRLGKPGLGGSAGSAAGSGEFHHHHHHHHHHGGGSGGGSGGGSGLNDFFEAQKIEWHEGGGSGGGSGGGSGLNDFFEAQKIEWHE
B3: PS637: two copies of PS557 in tandem separated by Linker 1 (protein)
chain: MPTAASATESAIEDTPAPARPEVDGRTKPKRQPRYHVVLWNDDDHTYQYVVVMLQSLFGHPPERGYRLAKEVDTQGRVIVLTTTREHAELKRDQIHAFGYDRLLARSKGSMKASIEAEEGGGSGGGSGGGSGMPTAASATESAIEDTPAPARPEVDGRTKPKRQPRYHVVLWNDDDHTYQYVVVMLQSLFGHPPERGYRLAKEVDTQGRVIVLTTTREHAELKRDQIHAFGYDRLLARSKGSMKASIEAEEGGSHHHHHHHHHHGGGSGGGSGGGSGLNDFFEAQKIEWHEGGGSGGGSGGGSGLNDFFEAQKIEWHE
B4: PS704 (protein)
chain: MSDSPVDLKPKPKVKPKLERPKLYKVMLLNDDYTPMSFVTVVLKAVFRMSEDTGRRVMMTAHRFGSAVVVVCERDIAETKAKEATDLGKEAGFPLMFTTEPEEGSAGSAAGSGEFMDKDCEMKRTTLDSPLGKLELSGCEQGLHEIKLLGKGTSAADAVEVPAPAAVLGGPEPLMQATAWLNAYFHQPEAIEEFPVPALHHPVFQQESFTRQVLWKLLKVVKFGEVISYQQLAALAGNPAATAAVKTALSGNPVPILIPCHRVVSSSGAVGGYEGGLAVKEWLLAHEGHRLGKPGLGMDKDCEMKRTTLDSPLGKLELSGCEQGLHEIKLLGKGTSAADAVEVPAPAAVLGGPEPLMQATAWLNAYFHQPEAIEEFPVPALHHPVFQQESFTRQVLWKLLKVVKFGEVISYQQLAALAGNPAATAAVKTALSGNPVPILIPCHRVVSSSGAVGGYEGGLAVKEWLLAHEGHRLGKPGLGGSAGSAAGSGEFHHHHHHHHHHGGGSGGGSGGGSGLNDFFEAQKIEWHEGGGSGGGSGGGSGLNDFFEAQKIEWHE
B5: PS638: two copies of PS557 in tandem separated by Linker 2 (protein)
chain: MPTAASATESAIEDTPAPARPEVDGRTKPKRQPRYHVVLWNDDDHTYQYVVVMLQSLFGHPPERGYRLAKEVDTQGRVIVLTTTREHAELKRDQIHAFGYDRLLARSKGSMKASIEAEEGSAGSAAGSGEFMPTAASATESAIEDTPAPARPEVDGRTKPKRQPRYHVVLWNDDDHTYQYVVVMLQSLFGHPPERGYRLAKEVDTQGRVIVLTTTREHAELKRDQIHAFGYDRLLARSKGSMKASIEAEEGGSHHHHHHHHHHGGGSGGGSGGGSGLNDFFEAQKIEWHEGGGSGGGSGGGSGLNDFFEAQKIEWHE
B6: PS703 (protein)
chain: MSDSPVDLKPKPKVKPKLERPKLYKVMLLNDDYTPMSFVTVVLKAVFRMSEDTGRRVMMTAHRFGSAVVVVCERDIAETKAKEATDLGKEAGFPLMFTTEPEEGSAGSAAGSGEFMDKDCEMKRTTLDSPLGKLELSGCEQGLHEIKLLGKGTSAADAVEVPAPAAVLGGPEPLMQATAWLNAYFHQPEAIEEFPVPALHHPVFQQESFTRQVLWKLLKVVKFGEVISYQQLAALAGNPAATAAVKTALSGNPVPILIPCHRVVSSSGAVGGYEGGLAVKEWLLAHEGHRLGKPGLGGSAGSAAGSGEFHHHHHHHHHHGGGSGGGSGGGSGLNDFFEAQKIEWHEGGGSGGGSGGGSGLNDFFEAQKIEWHE
B7: Synechococcus elongatus ClpS2: ClpS protein, SEQ ID NO: 106 (protein, listed as Synechococcus elongatus)
chain: MSPQPDESVLSILGVPRPCVKKRSRNDAFVLTVLTCSLQAIAAPATAPGTTTTRVRQPYPHFRVIVLDDDVNTFQHVAECLLKYIPGMTGDRAWDLTNQVHYEGAATVWSGPQEQAELYHEQLRREGLTMAPLEAA
B8: PS612: polypeptide with tandem copies of two different ClpS monomers (atClpS2-V1 and PS372) (protein)
chain: MSDSPVDLKPKPKVKPKLERPKLYKVMLLNDDYTPMSFVTVVLKAVFRMSEDTGRRVMMTAHRFGSAVVVVCERDIAETKAKEATDLGKEAGFPLMFTTEPEEGSAGSAAGSGEFMAFPARGKTAPKNEVRRQPPYNVILLNDDDHTYRYVIEMLQKIFGFPPEKGFQIAEEVDRTGRVILLTTSKEHAELKQDQVHSYGPDPYLGRPCSGSMTCVIEPAVGGSHHHHHHHHHHGGGSGGGSGGGSGLNDFFEAQKIEWHEGGGSGGGSGGGSGLNDFFEAQKIEWHE
B9: PS639: two copies of PS557 in tandem separated by Linker 3 (protein)
chain: MPTAASATESAIEDTPAPARPEVDGRTKPKRQPRYHVVLWNDDDHTYQYVVVMLQSLFGHPPERGYRLAKEVDTQGRVIVLTTTREHAELKRDQIHAFGYDRLLARSKGSMKASIEAEEGSAGSAAGSGEFGSAGSAAGSGEFGSAGSAAGSGEFMPTAASATESAIEDTPAPARPEVDGRTKPKRQPRYHVVLWNDDDHTYQYVVVMLQSLFGHPPERGYRLAKEVDTQGRVIVLTTTREHAELKRDQIHAFGYDRLLARSKGSMKASIEAEEGGSHHHHHHHHHHGGGSGGGSGGGSGLNDFFEAQKIEWHEGGGSGGGSGGGSGLNDFFEAQKIEWHE
B10: PS705 (protein)
chain: MSDSPVDLKPKPKVKPKLERPKLYKVMLLNDDYTPMSFVTVVLKAVFRMSEDTGRRVMMTAHRFGSAVVVVCERDIAETKAKEATDLGKEAGFPLMFTTEPEEHHHHHHHHHHGGGSGGGSGGGSGLNDFFEAQKIEWHEGGGSGGGSGGGSGLNDFFEAQKIEWHEGSAGSAAGSGEFMDKDCEMKRTTLDSPLGKLELSGCEQGLHEIKLLGKGTSAADAVEVPAPAAVLGGPEPLMQATAWLNAYFHQPEAIEEFPVPALHHPVFQQESFTRQVLWKLLKVVKFGEVISYQQLAALAGNPAATAAVKTALSGNPVPILIPCHRVVSSSGAVGGYEGGLAVKEWLLAHEGHRLGKPGLG

Legend:
[1] = system: peptides with different N-terminal amino acids, penultimate alanine; assay: Biolayer interferometry of multivalent amino acid binders; assay type: binding
Method: The amino acid binding profile of each Bis-atClpS2-V1 binder (PS609, PS610, and PS611) was evaluated by biolayer interferometry as described above. The monovalent atClpS2-V1 was run as a control. Measurements with each binder were carried out for the amino acids F, Y, and W, along with I, L, M, and V as negative controls. All peptides contained a penultimate alanine (A). Response curves for the tandem binders PS609, PS610, and PS611 are shown in FIGS. 35B, 35C, and 35D, respectively.
The multivalent binder PS612 is a polypeptide that contains tandem copies of two different ClpS protein monomers (atClpS2-V1 and PS372). The amino acid binding profile of PS612 was evaluated by biolayer interferometry as described above. The monovalent binders atClpS2-V1 and PS372 were separately run as controls.
The multivalent binder PS614 is a polypeptide that contains two copies of the ClpS binder PS372 oriented in tandem. The amino acid binding profile of PS614 was evaluated by biolayer interferometry as described above.
The multivalent binders PS637, PS638, and PS639 are polypeptides that each contain two copies of the ClpS binder PS557 oriented in tandem and separated by Linker 1, Linker 2, and Linker 3, respectively. The amino acid binding profiles of each binder was evaluated by biolayer interferometry as described above.

[2] = system: labeled N-terminal LA peptide; assay: Stopped-flow dissociation rate (koff), PS557 derivatives; assay type: binding; conditions: excess unlabeled trap peptide
Text: (§1) To measure the dissociation rate (koff) by stopped-flow, complexes of binder bound to labeled peptide substrate at an optimal concentration were rapidly mixed with excess unlabeled trap peptide. […] The averaged raw traces were fitted with an exponential equation to determine the koff (FIG. 37B, bottom panel).

[3] = system: labeled N-terminal FA peptide; assay: Stopped-flow dissociation rate (koff), atClpS2-V1 derivatives; assay type: binding; conditions: excess unlabeled trap peptide
Text: as §1

[4] = system: amino acid at a terminal position of a polypeptide; assay: Amino acid binding preference of recognition proteins (Tables 1 and 2); conditions: Table 1, ClpS proteins; amino acid identity at a terminal position of a polypeptide; inferred from literature and/or demonstrated by the inventors
Text: It should be appreciated that these sequences and other examples described herein are meant to be non-limiting, and recognition molecules in accordance with the application can include any homologs, variants thereof, or fragments thereof minimally containing domains or subdomains responsible for peptide recognition.

[5] = system: N-terminal amino acids of peptides; assay: Single-molecule terminal amino acid recognition by labeled recognition molecule (dwell time analysis); assay type: binding
Method: An adaptor protein involved in proteolytic pathways was identified as a potential candidate for use as a labeled recognition molecule for detecting N-terminal aromatic residues. The adaptor protein, ClpS2 from an α-proteobacterium (A. tumefaciens), was expressed and labeled at an exposed cysteine residue. […] The exposed cysteine residue was labeled with a rhodamine dye (ATTO 532).
Peptides having different N-terminal aromatic residues were prepared to test whether the labeled ClpS2 was capable of N-terminal amino acid discrimination at the single molecule level.
FIG. 19C is a plot showing discriminant pulse durations (time duration of signal peaks) among the three N-terminal residues when reversibly bound by labeled ClpS2. FIG. 19D is a plot showing discriminant interpulse durations (time duration between signal pulses) among the three N-terminal residues. […] Mean pulse duration for the different N-terminal residues is visualized by histograms (A)-(B) and layered histogram (C).

Row | Molecule | N-terminal amino acids bound (biolayer interferometry) [1] | FA koff [3] [s⁻¹] | further results
1 | B1 | N-terminal I, L, and V |  | 
2 | B2 |  |  | LA koff [2]: 0.15 s⁻¹
3 | B3 | N-terminal I, L, and V |  | 
4 | B4 |  | 0.6774 | 
5 | B5 | N-terminal I, L, and V |  | 
6 | B6 |  | 0.7674 | 
7 | B7 |  |  | Binding Pref. [4]: F, W, Y, L; recognition of terminal amino acids (dwell time analysis) [5]: leucine recognition
8 | B8 | N-terminal F, W, Y, I, L, and V |  | 
9 | B9 | N-terminal I, L, and V |  | 
10 | B10 |  | 1.2655 | 
